Measurements reported in US20180134804A1.
Several values for one entry are separate records, joined by “and”; a condition that tells them apart may be missing. Identical values can stand only once.

How the values were obtained:
[1] = molecular target: HLA-A0201 on T2 cells without added peptide (human); test: flow cytometry: BB7 staining of T2 cells without peptide
[2] = molecular target: CD3 on purified human T cells (human) (UniProt P07766); test: flow cytometry of purified human CD3 T cells, BiTE at 0.1 ug/ml then FITC secondary; same sample file as in FIGURE 5B
CD3 on purified human T cells (human), sequence (P07766 23-207): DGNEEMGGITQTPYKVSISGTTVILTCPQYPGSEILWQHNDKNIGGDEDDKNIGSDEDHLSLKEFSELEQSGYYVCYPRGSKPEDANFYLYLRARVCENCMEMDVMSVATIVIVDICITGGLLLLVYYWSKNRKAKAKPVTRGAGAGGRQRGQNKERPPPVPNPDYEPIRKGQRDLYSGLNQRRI

[3] = molecular target: CD3 on purified human T cells (human) (UniProt P07766); test: flow cytometry of purified human CD3 T cells, BiTE at 1 ug/ml then FITC secondary; secondary alone (GA6His_F 1;100) 8.13, unstained 8.13
[4] = molecular target: CD3 on purified human T cells (human) (UniProt P07766); test: flow cytometry of purified human CD3 T cells, BiTE at 0.1 ug/ml then FITC secondary; secondary alone (GA6His_F 1;100) 8.13, unstained 8.13
[5] = molecular target: CD3 on purified human T cells (human) (UniProt P07766); test: flow cytometry of purified human CD3 T cells, BiTE at 10 ug/ml then FITC secondary; secondary alone (GA6His_F 1;100) 8.13, unstained 8.13
[6] = molecular target: CD3 on purified human T cells (human) (UniProt P07766); test: flow cytometry of purified human CD3 T cells, BiTE at 10 ug/ml then FITC secondary; same sample file as in FIGURE 5B
[7] = molecular target: Ras10-G12V peptide/HLA-A0201 complex on peptide-pulsed T2 cells (human)
[8] = molecular target: Ras10-WT peptide/HLA-A0201 complex on peptide-pulsed T2 cells (human)
[9] = molecular target: CD3 on purified human T cells (human) (UniProt P07766); test: flow cytometry of purified human CD3 T cells, BiTE at 1 ug/ml then FITC secondary; same sample file as in FIGURE 5B

Substance | Median:FL1-H [1] | Median:FL1-H [2] | Median:FL1-H [3] | Median:FL1-H [4] | Median:FL1-H [5] | Median:FL1-H [6] | Median:FL1-H [7] | Median:FL1-H [8] | Median:FL1-H [9]
BB7 (antibody) | 316 |  |  |  |  |  |  |  | 
isotype control BiTE (bispecific antibody) |  | 39.6 | 229 | 39.6 | 604 | 604 | 11.2 and 11.4 | 10.7 and 11.2 | 229
